Values quoted from earlier work in paper PMC9686918.

Target: myeloperoxidase (Homo sapiens) (UniProt P05164)
Sequence (P05164 165-273): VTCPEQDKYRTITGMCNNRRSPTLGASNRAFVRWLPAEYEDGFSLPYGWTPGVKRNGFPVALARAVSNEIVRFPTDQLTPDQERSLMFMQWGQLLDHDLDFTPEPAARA

human serum albumin (from UniProt P02768)
Kd: 20 µM
